Laboratory results reported in patent USRE47150 (Bayer, dated 2018).

T1: mouse tissue factor pathway inhibitor (TFPI) (mouse, UniProt O54819 29-289, limits assumed)
T1 construct: bought; also called mTFPI; murine TFPI
T1 sequence (looked up): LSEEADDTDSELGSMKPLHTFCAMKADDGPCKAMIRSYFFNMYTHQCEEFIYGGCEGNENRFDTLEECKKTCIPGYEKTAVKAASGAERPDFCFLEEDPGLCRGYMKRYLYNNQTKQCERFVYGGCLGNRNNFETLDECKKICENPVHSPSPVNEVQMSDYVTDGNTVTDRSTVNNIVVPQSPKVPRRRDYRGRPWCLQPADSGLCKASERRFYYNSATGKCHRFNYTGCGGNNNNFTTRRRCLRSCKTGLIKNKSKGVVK

T2: human tissue factor pathway inhibitor (TFPI) (human, UniProt P10646 29-304, limits assumed)
T2 construct: bought; also called hTFPI; human TFPI
T2 sequence (looked up): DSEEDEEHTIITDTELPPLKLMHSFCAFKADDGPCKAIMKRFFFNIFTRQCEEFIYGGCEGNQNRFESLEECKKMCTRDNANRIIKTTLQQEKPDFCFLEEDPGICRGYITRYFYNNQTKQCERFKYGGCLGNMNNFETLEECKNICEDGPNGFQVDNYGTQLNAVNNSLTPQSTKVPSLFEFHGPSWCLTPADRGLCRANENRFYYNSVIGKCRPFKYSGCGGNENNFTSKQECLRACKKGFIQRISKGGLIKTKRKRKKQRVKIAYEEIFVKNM


Legend:
[1] = biological target: T1, mouse tissue factor pathway inhibitor …; experiment: competitive ELISA
[2] = biological target: T2, human tissue factor pathway inhibitor …; experiment: competitive ELISA
[3] = biological target: T2, human tissue factor pathway inhibitor …; experiment: competitive ELISA; remark: listed apart in the source
[4] = biological target: T1, mouse tissue factor pathway inhibitor …; experiment: equilibrium ELISA

| Binder | variant/HC_K99L [1] [ratio] | variant/HC_K99L [2] [ratio] | variant/wild-type [3] [ratio] | variant/wild-type [4] [ratio] |
| --- | --- | --- | --- | --- |
| 2A8 HC S31V+I51D+S55R+K99V/LC D1S+I2Y+A13S+S21T+R28P+N29K+Y48F+E80M+D91L+D92S+V94T+V96W (Fab, V domains shown) VH: QVQLVESGGGLVQPGGSLRLSCAASGFTFRVYGMSWVRQAPGKGLEWVSSDRGSRSSTYYADSVKGRFTISRDNSKNTLYLQMNSLRAEDTAVYYCARVYRYWFDYWGQGTLVTVSS VL: SYELTQPPSVSVSPGQTARITCSGDNLPKYYAHWYQQKPGQAPVVVIFYDNNRPSGIPERFSGSNSGNTATLTISGTQAMDEADYYCQSWLSGTPWFGGGTKLTVLG | 15.4 | 18 | – | – |
| 2A8 HC Q1E+R30S+S35D+S55R+S56G+K99L/LC D1S+I2Y+A13S+S21T+R28P+Y48F+N51V+E80M+D91W (Fab, V domains shown) VH: EVQLVESGGGLVQPGGSLRLSCAASGFTFSSYGMDWVRQAPGKGLEWVSSIRGSRGSTYYADSVKGRFTISRDNSKNTLYLQMNSLRAEDTAVYYCARLYRYWFDYWGQGTLVTVSS VL: SYELTQPPSVSVSPGQTARITCSGDNLPNYYAHWYQQKPGQAPVVVIFYDVNRPSGIPERFSGSNSGNTATLTISGTQAMDEADYYCQSWWDGVPVFGGGTKLTVLG | 15.1 | 18.7 | – | – |
| 4B7 HC_D62I (Fab, V domains shown) VH: QVQLQQSGPGLVKPSQTLSLTCAISGDSVSSNSAAWSWIRQSPGRGLEWLGIIYKRSKWYNIYAVSVKSRITINPDTSKNQFSLQLNSVTPEDTAVYYCARWHSDKHWGFDYWGQGTLVTVSS VL: DIVMTQSPLSLPVTPGEPASISCRSSQSLVFSDGNTYLNWYLQKPGQSPQLLIYKGSNRASGVPDRFSGSGSGTDFTLKISRVEAEDVGVYYCQQYDSYPLTFGQGTKVEIKR | – | – | 9.8 | 44.4 |
| 4B7 HC_D62Q (Fab, V domains shown) VH: QVQLQQSGPGLVKPSQTLSLTCAISGDSVSSNSAAWSWIRQSPGRGLEWLGIIYKRSKWYNQYAVSVKSRITINPDTSKNQFSLQLNSVTPEDTAVYYCARWHSDKHWGFDYWGQGTLVTVSS VL: DIVMTQSPLSLPVTPGEPASISCRSSQSLVFSDGNTYLNWYLQKPGQSPQLLIYKGSNRASGVPDRFSGSGSGTDFTLKISRVEAEDVGVYYCQQYDSYPLTFGQGTKVEIKR | – | – | 20.6 | 142 |
| 4B7 HC_S57R (Fab, V domains shown) VH: QVQLQQSGPGLVKPSQTLSLTCAISGDSVSSNSAAWSWIRQSPGRGLEWLGIIYKRRKWYNDYAVSVKSRITINPDTSKNQFSLQLNSVTPEDTAVYYCARWHSDKHWGFDYWGQGTLVTVSS VL: DIVMTQSPLSLPVTPGEPASISCRSSQSLVFSDGNTYLNWYLQKPGQSPQLLIYKGSNRASGVPDRFSGSGSGTDFTLKISRVEAEDVGVYYCQQYDSYPLTFGQGTKVEIKR | – | – | 2 | – |
| 4B7 HC_H103G (Fab, V domains shown) VH: QVQLQQSGPGLVKPSQTLSLTCAISGDSVSSNSAAWSWIRQSPGRGLEWLGIIYKRSKWYNDYAVSVKSRITINPDTSKNQFSLQLNSVTPEDTAVYYCARWGSDKHWGFDYWGQGTLVTVSS VL: DIVMTQSPLSLPVTPGEPASISCRSSQSLVFSDGNTYLNWYLQKPGQSPQLLIYKGSNRASGVPDRFSGSGSGTDFTLKISRVEAEDVGVYYCQQYDSYPLTFGQGTKVEIKR | – | – | 1.4 | 10.7 |
| 4B7 HC_H107M LC_F31I (Fab, V domains shown) VH: QVQLQQSGPGLVKPSQTLSLTCAISGDSVSSNSAAWSWIRQSPGRGLEWLGIIYKRSKWYNDYAVSVKSRITINPDTSKNQFSLQLNSVTPEDTAVYYCARWHSDKMWGFDYWGQGTLVTVSS VL: DIVMTQSPLSLPVTPGEPASISCRSSQSLVISDGNTYLNWYLQKPGQSPQLLIYKGSNRASGVPDRFSGSGSGTDFTLKISRVEAEDVGVYYCQQYDSYPLTFGQGTKVEIKR | – | – | 1.7 | 9.2 |
| 4B7 HC_D62V (Fab, V domains shown) VH: QVQLQQSGPGLVKPSQTLSLTCAISGDSVSSNSAAWSWIRQSPGRGLEWLGIIYKRSKWYNVYAVSVKSRITINPDTSKNQFSLQLNSVTPEDTAVYYCARWHSDKHWGFDYWGQGTLVTVSS VL: DIVMTQSPLSLPVTPGEPASISCRSSQSLVFSDGNTYLNWYLQKPGQSPQLLIYKGSNRASGVPDRFSGSGSGTDFTLKISRVEAEDVGVYYCQQYDSYPLTFGQGTKVEIKR | – | – | 31.9 | 95 |
| 4B7 HC_G109A LC_D33R (Fab, V domains shown) VH: QVQLQQSGPGLVKPSQTLSLTCAISGDSVSSNSAAWSWIRQSPGRGLEWLGIIYKRSKWYNDYAVSVKSRITINPDTSKNQFSLQLNSVTPEDTAVYYCARWHSDKHWAFDYWGQGTLVTVSS VL: DIVMTQSPLSLPVTPGEPASISCRSSQSLVFSRGNTYLNWYLQKPGQSPQLLIYKGSNRASGVPDRFSGSGSGTDFTLKISRVEAEDVGVYYCQQYDSYPLTFGQGTKVEIKR | – | – | 3.8 | 8 |

Next, values leading:

| variant/HC_K99L [1] [ratio] | variant/HC_K99L [2] [ratio] | variant/wild-type [3] [ratio] | variant/wild-type [4] [ratio] | Binder |
| --- | --- | --- | --- | --- |
| 15.5 | 19.8 | – | – | 2A8 HC Q1E+R30S+S35D+S55R+S56G+K99L/LC D1S+I2Y+A13S+S21T+R28P+N29K+Y48F+N51V+E80M+D91W (Fab, V domains shown) VH: EVQLVESGGGLVQPGGSLRLSCAASGFTFSSYGMDWVRQAPGKGLEWVSSIRGSRGSTYYADSVKGRFTISRDNSKNTLYLQMNSLRAEDTAVYYCARLYRYWFDYWGQGTLVTVSS VL: SYELTQPPSVSVSPGQTARITCSGDNLPKYYAHWYQQKPGQAPVVVIFYDVNRPSGIPERFSGSNSGNTATLTISGTQAMDEADYYCQSWWDGVPVFGGGTKLTVLG |
| 7.1 | 11.4 | – | – | 2A8 HC Q1E+S31V+S50A+I51D+S55R+S56G+K99V/LC D1S+I2Y+A13S+S21T+R28P+N29K+Y48F+N51S+E80M+D91L+D92S+V94T+V96W (Fab, V domains shown) VH: EVQLVESGGGLVQPGGSLRLSCAASGFTFRVYGMSWVRQAPGKGLEWVSADRGSRGSTYYADSVKGRFTISRDNSKNTLYLQMNSLRAEDTAVYYCARVYRYWFDYWGQGTLVTVSS VL: SYELTQPPSVSVSPGQTARITCSGDNLPKYYAHWYQQKPGQAPVVVIFYDSNRPSGIPERFSGSNSGNTATLTISGTQAMDEADYYCQSWLSGTPWFGGGTKLTVLG |
| 2.4 | 2.2 | – | – | 2A8 HC S31V+I51D+S55R+K99V/LC D1S+I2Y+A13S+S21T+R28P+N29K+Y48F+Y49R+N51S+E80M+D91L+D92S+V94T+V96W (Fab, V domains shown) VH: QVQLVESGGGLVQPGGSLRLSCAASGFTFRVYGMSWVRQAPGKGLEWVSSDRGSRSSTYYADSVKGRFTISRDNSKNTLYLQMNSLRAEDTAVYYCARVYRYWFDYWGQGTLVTVSS VL: SYELTQPPSVSVSPGQTARITCSGDNLPKYYAHWYQQKPGQAPVVVIFRDSNRPSGIPERFSGSNSGNTATLTISGTQAMDEADYYCQSWLSGTPWFGGGTKLTVLG |
| 5.9 | 9.8 | – | – | 2A8 HC Q1E+S31V+S50A+I51D+S55R+S56G+K99V/LC D1S+I2Y+A13S+S21T+R28P+N29K+Y48F+E80M+D91L+D92S+V94T+V96W (Fab, V domains shown) VH: EVQLVESGGGLVQPGGSLRLSCAASGFTFRVYGMSWVRQAPGKGLEWVSADRGSRGSTYYADSVKGRFTISRDNSKNTLYLQMNSLRAEDTAVYYCARVYRYWFDYWGQGTLVTVSS VL: SYELTQPPSVSVSPGQTARITCSGDNLPKYYAHWYQQKPGQAPVVVIFYDNNRPSGIPERFSGSNSGNTATLTISGTQAMDEADYYCQSWLSGTPWFGGGTKLTVLG |
| – | – | 52.3 | 146 | 4B7 HC_D62N (Fab, V domains shown) VH: QVQLQQSGPGLVKPSQTLSLTCAISGDSVSSNSAAWSWIRQSPGRGLEWLGIIYKRSKWYNNYAVSVKSRITINPDTSKNQFSLQLNSVTPEDTAVYYCARWHSDKHWGFDYWGQGTLVTVSS VL: DIVMTQSPLSLPVTPGEPASISCRSSQSLVFSDGNTYLNWYLQKPGQSPQLLIYKGSNRASGVPDRFSGSGSGTDFTLKISRVEAEDVGVYYCQQYDSYPLTFGQGTKVEIKR |
| – | – | 2.4 | 12.9 | 4B7 HC_H103D (Fab, V domains shown) VH: QVQLQQSGPGLVKPSQTLSLTCAISGDSVSSNSAAWSWIRQSPGRGLEWLGIIYKRSKWYNDYAVSVKSRITINPDTSKNQFSLQLNSVTPEDTAVYYCARWDSDKHWGFDYWGQGTLVTVSS VL: DIVMTQSPLSLPVTPGEPASISCRSSQSLVFSDGNTYLNWYLQKPGQSPQLLIYKGSNRASGVPDRFSGSGSGTDFTLKISRVEAEDVGVYYCQQYDSYPLTFGQGTKVEIKR |
| – | – | 8.1 | 5.6 | 4B7 HC_H107M (Fab, V domains shown) VH: QVQLQQSGPGLVKPSQTLSLTCAISGDSVSSNSAAWSWIRQSPGRGLEWLGIIYKRSKWYNDYAVSVKSRITINPDTSKNQFSLQLNSVTPEDTAVYYCARWHSDKMWGFDYWGQGTLVTVSS VL: DIVMTQSPLSLPVTPGEPASISCRSSQSLVFSDGNTYLNWYLQKPGQSPQLLIYKGSNRASGVPDRFSGSGSGTDFTLKISRVEAEDVGVYYCQQYDSYPLTFGQGTKVEIKR |
| – | – | 29.3 | 146 | 4B7 HC_D62S (Fab, V domains shown) VH: QVQLQQSGPGLVKPSQTLSLTCAISGDSVSSNSAAWSWIRQSPGRGLEWLGIIYKRSKWYNSYAVSVKSRITINPDTSKNQFSLQLNSVTPEDTAVYYCARWHSDKHWGFDYWGQGTLVTVSS VL: DIVMTQSPLSLPVTPGEPASISCRSSQSLVFSDGNTYLNWYLQKPGQSPQLLIYKGSNRASGVPDRFSGSGSGTDFTLKISRVEAEDVGVYYCQQYDSYPLTFGQGTKVEIKR |
| – | – | 6.8 | 22.9 | 4B7 HC_D62L (Fab, V domains shown) VH: QVQLQQSGPGLVKPSQTLSLTCAISGDSVSSNSAAWSWIRQSPGRGLEWLGIIYKRSKWYNLYAVSVKSRITINPDTSKNQFSLQLNSVTPEDTAVYYCARWHSDKHWGFDYWGQGTLVTVSS VL: DIVMTQSPLSLPVTPGEPASISCRSSQSLVFSDGNTYLNWYLQKPGQSPQLLIYKGSNRASGVPDRFSGSGSGTDFTLKISRVEAEDVGVYYCQQYDSYPLTFGQGTKVEIKR |
